Laboratory results from the supplement of paper PMC12636428.

Tested on: Saccharomyces cerevisiae
Assay: transcriptional activation domain activity (GFP:mCherry ratio, weighted mean of sorted bins, harmonized to initial dataset scale) (arbitrary fluorescence ratio units); higher = stronger transcriptional activation
Conditions: beta-estradiol 1 µM; induction time 4 h
Outline: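 In diploid yeast carrying a GFP reporter, barcoded protein tiles fused to an estradiol-inducible synthetic transcription factor were integrated at the URA3 locus. Cultures diluted 1:5 into SC with 1 uM beta-estradiol were kept at 30 °C for 4 hours, then sorted by GFP:mCherry ratio into 8 bins before barcode sequencing. Tiles with under 50 reads were excluded. The activation activity reported here is the read-weighted mean of bin median fluorescence, averaged across barcodes and linearly rescaled to the initial dataset.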

Sequence | transcriptional activation domain activity
FFSFPSFLLLPPPLSSLPFPSPFLSLLLSLLAFPAAFFPLFSLSSLLNIFPTT | 58500
FFSSFLFFSFLFFSVVLSFLLFFSLLFSSPLFFPFLPFPSLSFPSLPSSPLLF | 35200
FFSSLFIYSFFVFSFSLSLSLCLLPSFFLSCFLSFFAIYYYLVGFLLLLLLLF | 49100
FFTPPSTTYLRFFLSFYPLSPFIFFFIFLSFSLPLSSFLSFSISFFFTFPFPF | 36100
FGAIFVELYFIMSSIWFSKIYYMFGFLFLCYGLMILTCATVTILMVYFLLCAE | 60500
FGASLPVFWKVIFHHCQLYFLVIVSTKAILVFTIYALEFPYSVMFIICHLVLV | 37700
FGCLGFYPYLYCTGGMVLSHFAPHQNPELYPSDLSIISSLLISILFFCGWTLT | 67900
FGESCAGVLPVTMYDNRLNRHSEHHGKNVYEKMVSGRYLGELVRWILVELLDR | 54500
FGFFSFSSFFFFLVLLYLFSFFFFLDFLSFSFLFPDIHSRIVINHNLVGNFFF | 44600
FGFVFFVASLENGHYKFQFTNFAWTHMALYLIVCQAHFVMNNIFEGMIWFFLP | 66100
FGHVINEFVLSTFLTDQCHKIPQDTVNAYFEDCSTISTSQILMLLYILTFNDY | 60700
FGLFGPLDFLDFLDLWTFWTFWTLNFLDFWTFGLFGLLALDLDFLDFLDFLDL | 57800
FGLLIAGWVCFFFFLSPLFPLFPLFPLFFFFFLLVGSPVSVYLWLGFLVWFGL | 32800
FGNPPLIWFFWALFSPLFLFFFFFPIFFLSFPFFSFSFLFSFFVLLGVLKAYL | 22100
FGRSKAKRRAGRGFGTSGYGAGSSASNGGKDAKGGDTKGAENRYHDNKDEDND | 38200
FGSDYTRFYMYMPHPSILPYILGDLFWTFWRGFIDMEMTSKTYLYLFFLLLPP | 72300
FGSWGRGLCPLVFREAGWLELWGCVCVGGTLVWCLPYGILPMSYWRIWGLLRW | 74600
FGVGMVPLGCQWACHLVALMVLFDVGWLCISRFILLDSMLLFFTFLTVFCMTK | 57900
FGVKKVHHEIRSHVRLYYQSIGTSLLKGYERMDMVDIFKALRQCFLAIVLLFR | 53600
FGWHIYKKIGADLAMRGKRSLSPLISSSPRLADRYKMYQIFMMLLKLDFFFFL | 77900
FGYSPSAVWVFLFCFGQGLISFAFLPFFFYLVSICIIILGGLLFCIWVVYIYQ | 28400

Sequence | transcriptional activation domain activity
FHAWVSHIVQLNLFGLLSQTLMLIMFKLDVGTYFFLNDVILCKVYVFSLFVTL | 65400
FHFHLHSSISFPFPSLSLPFPFFPTSSSSSSPFLLHLFPFPSLFFPLLLLLLF | 56400
FHIGIYARVLMCLLLDKKARPLPEDMKLWVDLLRWLKGGSPGGALSFFTYMEL | 30900
FHLPCLSLRWWRWCWGHYRLILVVLCLVLLPCLVFLDTIYVYKAFFQIKLENT | 34500
FHPIPFLFSSSPLFLIPIFSFHIFHFLLLPFFPSLLLSSFSIPFIPLLSIHSS | 57600
FHRGGSNGSNSNNNNNAGDLQHHQHAGINKTTANVSEKYHWNRIKGTVTDVIE | 28300
FHSLLSPFHASFLSLFYPHSLSCFYLFPFLHAFVFLFHFRCGFLGVSCILLSA | 73200
FHYGGRADVTSVFTVEARTSLTVDDFRKRILLAWANLRLHHVLLMSTVLRDSA | 65000
FICLLLSTTLRRLRWCLIRYIRNNYMEVCVCLVTIGVVAFSRLSWTLWVGAYV | 50000
FIDAAGKGGELRWNPHNKRYHLVGAEEGGKEDALSAPNKPTKPNPVLVCIYGQ | 69000
FIHLMNMTQVVVLCIHRFVYGLVPLFEITTCAFWPLLVSLWHLTYLLFYAIMF | 64100
FILGLIFVFAFVWHERSMAACPLIPIKAMTAQATFVLVCTATGWASFSIWIYY | 60700
FILGYYWGDARLFGLSVRFMSLFSWFRVVHRVLPRLLPMRFKGPGKYVVTYDA | 58500
FILSGCTFRLLFCIFGIRVWLDHQLCGNLLVVELYRKIVRSIDAYHHGKGYPT | 61700
FILYSLLLIPFPLNYILSYIFFFFFLILWGIYLAMRGFFKSWFSLWAWAGNGI | 64600
FIPLQAGIKQLIGRLSLPRHPLSNLNHLIPRHIVFTDCIWLILRQLSTLKHWA | 57800
FIQLVHLWRLILNYGPTGPFNIRMPSHLTWVVIKQHIQQYFFRCLCLLNKDGA | 49100
FIRSQLGSVMPTIALSLMKDVLFRLEQLFLNRECHEWPVALAVLIIVLMTIES | 52800
FISKLCILGGSQICNHFWGGIEIILESFYFILTTLINFWDFINLPNAFLWGLF | 72800
FISVYVPNFFVAFCLEMSQFFYLYQFMVMWLYYYWNYYVIGVIDTAIILVSAI | 47100
